Measurements published in the supplement of paper PMC10065799, “High-throughput profiling of sequence recognition by tyrosine kinases and SH2 domains using bacterial peptide display” (eLife, 2023).

Experiments:
Fer (mouse) = assay: phosphorylation enrichment, bacterial display (enrichment ratio); higher = better substrate or ligand; peptides without Tyr show the background
EPHB2 = EPHB2 (UniProt P29323); assay: as above
AncSZ = assay: as above
c-Src = assay: as above
Hck = Hck (UniProt P08631); assay: as above
FGFR1 = FGFR1 (UniProt P11362); assay: as above
Jak2 = Jak2 (UniProt O60674); assay: as above
Fyn = Fyn (UniProt P06241); assay: as above
MERTK = MERTK (UniProt Q12866); assay: as above
c-Abl (mouse) = assay: as above
EPHB1 = EPHB1 (UniProt P54762); assay: as above
Fes = Fes (UniProt P07332); assay: as above
FGFR3 = FGFR3 (UniProt P22607); assay: as above
SHP2-C SH2 = assay: SH2 binding enrichment of the phosphorylated peptide, bacterial display (enrichment ratio); higher = better substrate or ligand; peptides without Tyr show the background
c-Src SH2 = assay: as above
Grb2 SH2 = Grb2 SH2 (UniProt P62993); assay: as above
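Wherever SH2 binding enrichment of the phosphorylated peptide, bacterial display is given: peptide library displayed on the E. coli surface as eCPX fusions, selected cells deep-sequenced, score is each peptide's frequency after selection divided by its frequency in the input.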
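Wherever phosphorylation enrichment, bacterial display is given: 11-residue human phosphosite peptides and single-mutation variants displayed on the E. coli surface, counted by deep sequencing, each peptide's frequency after selection divided by its frequency in the unselected input library; frequency after pTyr selection over input frequency; kinase dosed for 20-30% of maximal phosphorylation in three min.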

FGFR1, sequence (P11362 whole entry, looked up): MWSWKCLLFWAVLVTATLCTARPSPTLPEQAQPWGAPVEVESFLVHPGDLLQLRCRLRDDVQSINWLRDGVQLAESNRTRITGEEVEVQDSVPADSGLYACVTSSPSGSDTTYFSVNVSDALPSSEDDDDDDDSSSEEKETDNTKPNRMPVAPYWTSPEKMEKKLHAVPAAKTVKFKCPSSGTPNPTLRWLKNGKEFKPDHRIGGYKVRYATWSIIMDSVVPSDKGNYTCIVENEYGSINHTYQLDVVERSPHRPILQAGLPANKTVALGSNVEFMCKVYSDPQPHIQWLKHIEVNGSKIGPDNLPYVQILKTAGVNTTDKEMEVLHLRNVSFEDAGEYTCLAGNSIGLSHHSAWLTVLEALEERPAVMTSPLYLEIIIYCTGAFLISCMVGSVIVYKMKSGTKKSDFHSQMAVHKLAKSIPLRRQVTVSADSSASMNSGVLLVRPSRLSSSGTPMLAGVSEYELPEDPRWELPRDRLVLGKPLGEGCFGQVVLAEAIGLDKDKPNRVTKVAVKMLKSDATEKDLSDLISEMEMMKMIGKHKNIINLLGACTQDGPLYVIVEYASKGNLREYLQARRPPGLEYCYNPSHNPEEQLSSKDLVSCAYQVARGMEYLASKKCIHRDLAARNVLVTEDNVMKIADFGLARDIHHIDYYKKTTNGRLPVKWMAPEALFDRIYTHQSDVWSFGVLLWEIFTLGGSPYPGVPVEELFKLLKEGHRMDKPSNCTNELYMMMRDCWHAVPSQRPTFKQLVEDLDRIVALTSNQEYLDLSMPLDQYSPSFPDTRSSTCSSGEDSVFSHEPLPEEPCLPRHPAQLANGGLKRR
MERTK, sequence (Q12866 whole entry, looked up): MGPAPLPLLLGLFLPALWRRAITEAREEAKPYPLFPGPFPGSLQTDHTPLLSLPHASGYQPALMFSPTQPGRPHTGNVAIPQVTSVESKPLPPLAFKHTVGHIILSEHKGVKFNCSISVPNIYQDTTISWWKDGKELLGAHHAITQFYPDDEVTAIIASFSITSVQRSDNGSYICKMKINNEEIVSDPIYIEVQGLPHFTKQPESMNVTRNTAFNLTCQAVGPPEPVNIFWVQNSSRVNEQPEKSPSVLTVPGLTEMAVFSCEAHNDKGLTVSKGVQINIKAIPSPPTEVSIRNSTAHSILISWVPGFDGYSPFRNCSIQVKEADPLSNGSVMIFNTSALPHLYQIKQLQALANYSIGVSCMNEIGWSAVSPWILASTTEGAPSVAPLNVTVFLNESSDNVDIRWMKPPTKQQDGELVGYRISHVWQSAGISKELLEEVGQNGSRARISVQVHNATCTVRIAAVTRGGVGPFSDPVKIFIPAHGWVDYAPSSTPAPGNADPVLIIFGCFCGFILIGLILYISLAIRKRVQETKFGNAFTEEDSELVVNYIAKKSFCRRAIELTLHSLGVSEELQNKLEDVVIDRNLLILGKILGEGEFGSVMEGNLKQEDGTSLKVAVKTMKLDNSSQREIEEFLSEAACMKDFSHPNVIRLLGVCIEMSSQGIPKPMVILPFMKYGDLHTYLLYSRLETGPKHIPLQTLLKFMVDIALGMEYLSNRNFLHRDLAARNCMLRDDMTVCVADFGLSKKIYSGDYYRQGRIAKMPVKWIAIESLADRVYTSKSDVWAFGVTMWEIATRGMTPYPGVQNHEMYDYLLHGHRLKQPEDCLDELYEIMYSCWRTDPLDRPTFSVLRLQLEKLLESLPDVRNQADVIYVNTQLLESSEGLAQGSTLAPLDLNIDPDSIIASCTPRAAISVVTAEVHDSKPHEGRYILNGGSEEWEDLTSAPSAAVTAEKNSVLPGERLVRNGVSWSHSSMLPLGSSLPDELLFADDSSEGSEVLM
Fyn, sequence (P06241 whole entry, looked up): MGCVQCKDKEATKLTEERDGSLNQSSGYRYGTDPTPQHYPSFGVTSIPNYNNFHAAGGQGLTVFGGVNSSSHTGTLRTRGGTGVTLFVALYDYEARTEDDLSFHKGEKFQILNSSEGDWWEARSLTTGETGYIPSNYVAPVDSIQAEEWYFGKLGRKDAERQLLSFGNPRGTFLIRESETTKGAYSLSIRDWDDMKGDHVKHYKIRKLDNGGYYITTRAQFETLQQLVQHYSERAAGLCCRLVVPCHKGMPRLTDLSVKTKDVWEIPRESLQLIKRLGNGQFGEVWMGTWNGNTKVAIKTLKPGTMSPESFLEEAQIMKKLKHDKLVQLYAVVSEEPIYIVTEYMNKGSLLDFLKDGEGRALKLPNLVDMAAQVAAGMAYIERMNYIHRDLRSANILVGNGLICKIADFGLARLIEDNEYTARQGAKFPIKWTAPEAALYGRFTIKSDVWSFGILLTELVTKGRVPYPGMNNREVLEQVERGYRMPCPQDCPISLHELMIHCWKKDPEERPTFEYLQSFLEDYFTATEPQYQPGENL
Jak2, sequence (O60674 whole entry, looked up): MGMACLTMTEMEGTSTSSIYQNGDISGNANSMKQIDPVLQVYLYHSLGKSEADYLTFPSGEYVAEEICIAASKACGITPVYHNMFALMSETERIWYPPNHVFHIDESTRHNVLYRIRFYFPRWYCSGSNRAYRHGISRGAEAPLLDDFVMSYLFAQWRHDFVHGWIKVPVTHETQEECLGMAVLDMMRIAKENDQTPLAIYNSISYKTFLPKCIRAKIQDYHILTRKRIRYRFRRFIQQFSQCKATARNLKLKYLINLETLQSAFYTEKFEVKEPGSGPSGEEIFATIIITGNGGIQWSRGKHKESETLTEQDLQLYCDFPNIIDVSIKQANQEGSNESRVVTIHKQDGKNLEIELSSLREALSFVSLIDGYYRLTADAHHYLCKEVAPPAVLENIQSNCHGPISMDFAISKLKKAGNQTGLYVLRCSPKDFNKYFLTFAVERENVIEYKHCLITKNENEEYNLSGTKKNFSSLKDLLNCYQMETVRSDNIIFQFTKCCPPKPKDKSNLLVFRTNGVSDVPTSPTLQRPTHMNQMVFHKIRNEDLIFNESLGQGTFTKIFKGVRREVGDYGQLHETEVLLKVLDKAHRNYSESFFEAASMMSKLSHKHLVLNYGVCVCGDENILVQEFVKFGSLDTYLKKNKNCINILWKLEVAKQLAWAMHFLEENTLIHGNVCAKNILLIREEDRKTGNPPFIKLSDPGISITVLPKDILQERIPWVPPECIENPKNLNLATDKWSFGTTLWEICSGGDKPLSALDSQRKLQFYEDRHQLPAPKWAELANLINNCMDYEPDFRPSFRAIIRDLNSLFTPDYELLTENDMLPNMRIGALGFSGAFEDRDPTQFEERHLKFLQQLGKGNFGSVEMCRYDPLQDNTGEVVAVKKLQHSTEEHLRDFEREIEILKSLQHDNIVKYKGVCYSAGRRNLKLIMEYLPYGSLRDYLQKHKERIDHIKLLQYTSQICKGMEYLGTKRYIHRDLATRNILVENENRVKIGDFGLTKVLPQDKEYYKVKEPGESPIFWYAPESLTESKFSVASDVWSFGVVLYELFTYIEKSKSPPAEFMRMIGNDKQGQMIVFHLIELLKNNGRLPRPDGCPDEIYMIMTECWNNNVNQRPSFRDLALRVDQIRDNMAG
FGFR3, sequence (P22607 whole entry, looked up): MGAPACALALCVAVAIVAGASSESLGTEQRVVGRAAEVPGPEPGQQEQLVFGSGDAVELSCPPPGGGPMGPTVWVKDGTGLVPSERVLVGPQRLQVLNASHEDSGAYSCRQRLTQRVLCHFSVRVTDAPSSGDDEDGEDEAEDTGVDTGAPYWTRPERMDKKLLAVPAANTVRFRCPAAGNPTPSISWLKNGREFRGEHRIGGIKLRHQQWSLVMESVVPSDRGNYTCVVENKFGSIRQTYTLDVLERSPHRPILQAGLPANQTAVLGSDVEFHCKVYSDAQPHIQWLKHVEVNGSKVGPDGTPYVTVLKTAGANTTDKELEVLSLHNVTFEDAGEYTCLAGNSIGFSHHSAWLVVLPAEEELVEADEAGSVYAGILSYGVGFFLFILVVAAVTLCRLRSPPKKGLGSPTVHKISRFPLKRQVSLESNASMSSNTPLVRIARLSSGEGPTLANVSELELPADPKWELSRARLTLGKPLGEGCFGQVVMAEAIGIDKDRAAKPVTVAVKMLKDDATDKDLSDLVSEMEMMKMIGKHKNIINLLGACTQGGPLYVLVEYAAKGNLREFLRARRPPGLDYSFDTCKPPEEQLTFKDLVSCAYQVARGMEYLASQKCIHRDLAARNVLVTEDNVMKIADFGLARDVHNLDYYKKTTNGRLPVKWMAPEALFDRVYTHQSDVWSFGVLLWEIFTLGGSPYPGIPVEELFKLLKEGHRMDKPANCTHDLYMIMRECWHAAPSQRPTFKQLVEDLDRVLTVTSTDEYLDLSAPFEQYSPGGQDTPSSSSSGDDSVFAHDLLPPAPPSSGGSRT
Hck, sequence (P08631 whole entry, looked up): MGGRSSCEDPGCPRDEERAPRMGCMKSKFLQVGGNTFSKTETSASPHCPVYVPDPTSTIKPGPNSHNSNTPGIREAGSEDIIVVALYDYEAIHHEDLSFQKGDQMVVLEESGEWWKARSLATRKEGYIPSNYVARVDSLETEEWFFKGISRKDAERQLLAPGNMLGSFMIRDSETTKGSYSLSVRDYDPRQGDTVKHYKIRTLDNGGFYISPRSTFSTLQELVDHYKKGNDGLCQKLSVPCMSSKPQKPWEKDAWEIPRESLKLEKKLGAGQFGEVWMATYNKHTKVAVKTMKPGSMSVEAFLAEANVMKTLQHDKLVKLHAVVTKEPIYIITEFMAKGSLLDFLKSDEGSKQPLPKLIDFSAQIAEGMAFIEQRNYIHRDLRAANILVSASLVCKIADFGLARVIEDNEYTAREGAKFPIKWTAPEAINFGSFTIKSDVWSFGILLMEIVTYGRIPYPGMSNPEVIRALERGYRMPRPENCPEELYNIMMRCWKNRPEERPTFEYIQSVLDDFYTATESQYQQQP

Row | SH2 binding enrichment (SHP2-C SH2) | SH2 binding enrichment (c-Src SH2) | SH2 binding enrichment (Grb2 SH2) | Sequence | phosphorylation enrichment (Fer (mouse)) | phosphorylation enrichment (EPHB2) | phosphorylation enrichment (AncSZ) | phosphorylation enrichment (c-Src) | phosphorylation enrichment (Hck) | phosphorylation enrichment (FGFR1) | phosphorylation enrichment (Jak2) | phosphorylation enrichment (Fyn) | phosphorylation enrichment (MERTK) | phosphorylation enrichment (c-Abl (mouse)) | phosphorylation enrichment (EPHB1) | phosphorylation enrichment (Fes) | phosphorylation enrichment (FGFR3)
1 | 1.09 | 0.565 | 1.29 | WAMLAYNRSKL [WWOX_Y293] | 0.525 | 0.417 | 1.25 | 0.266 | 0.435 | 0.431 | 1.02 | 0.347 | 0.37 | 0.541 | 0.453 | 1.04 | 0.611
2 | 1.18 | 1.34 | 1.29 | WCKPPYFSCAV [MMS22L_Y28] | 0.474 | 0.562 | 1.06 | 0.459 | 0.432 | 0.512 | 0.845 | 0.459 | 0.418 | 0.656 | 0.506 | 0.908 | 0.656
3 | 0.589 | 0.685 | 0.683 | WEPFGYAVTRC [PTPRT_Y412] | 0.458 | 0.567 | 0.947 | 0.382 | 0.479 | 0.547 | 0.915 | 0.402 | 0.345 | 0.673 | 0.591 | 0.999 | 0.707
4 | 0.618 | 0.444 | 0.684 | WFISFYPQVIM [CTNS_Y143_S139F] | 0.451 | 0.637 | 1.22 | 0.359 | 0.446 | 0.485 | 1.13 | 0.413 | 0.315 | 0.758 | 0.541 | 1.53 | 0.838
5 | 0.639 | 0.512 | 1.06 | WFKKFYDANFD [MAPRE2_Y158_YF] | 0.373 | 0.374 | 0.998 | 0.368 | 0.421 | 0.378 | 0.85 | 0.37 | 0.399 | 0.537 | 0.501 | 1.28 | 0.6
